Experimental findings from ChEMBL document CHEMBL4321793, “Can Cysteine Protease Cross-Class Inhibitors Achieve Selectivity?” (J Med Chem, 2019) are described below.

The subject of data set [1] is N=C(N)NCCC[C@H](NC(=O)OCc1ccccc1)C(=O)N[C@@H](CCCNC(=N)N)C(=O)Nc1ccc2ccc(=O)oc2c1. The experiment in a line: (§1) Inhibition of human cathepsin B assessed as ratio of Kcat/Km using Z-Phe-Arg-MCA as substrate by spectrofluorometric method.
The subject of data set [2] is N=C(N)NCCC[C@H](NC(=O)[C@H](Cc1ccncc1)NC(=O)OCc1ccccc1)C(=O)Nc1ccc2ccc(=O)oc2c1. The data set is described as §1.
Data set [3] deals with N=C(N)NCCC[C@H](NC(=O)[C@H](Cc1ccc(NC(=N)N)cc1)NC(=O)OCc1ccccc1)C(=O)Nc1ccc2ccc(=O)oc2c1. The description is as §1.
In data set [4] the test system is N=C(N)NCCC[C@H](NC(=O)[C@H](Cc1ccccc1)NC(=O)OCc1ccccc1)C(=O)Nc1ccc2ccc(=O)oc2c1. The data set is described as §1.

As a reminder, the kcat/Km is the second-order rate constant that governs catalysis at low substrate concentration. On to Cathepsin B (Homo sapiens), for which the kcat/Km was 554000 M⁻¹ s⁻¹ in data set [1], 742000 M⁻¹ s⁻¹ in data set [2], 1.57e+06 M⁻¹ s⁻¹ in data set [3] and 2.32e+06 M⁻¹ s⁻¹ in data set [4].
